# Starred links: 1 amine or outer side, 2 acyl side, 3 side chain; linkers in the order of their positions; H or OH if unused. Non-standard residues stand in square brackets, D forms with d. Groups on a side chain read outwards from the residue. No end group written: not given here. *: point of attachment. C18 diacid = O=C(O)CCCCCCCCCCCCCCCCC(=O)*; γGlu = O=C(O)[C@H](CCC(=O)[*:2])N[*:1]; Palmitoyl = CCCCCCCCCCCCCCCC(=O)*; AEEA = NCCOCCOCC(=O)O; Aib = CC(C)(N)C(=O)O
# B1: SEQ ID NO: 161 (peptide)
# peptide: Ac-IVLSLD[dV]PIKLK([AEEA-AEEA-γGlu-C18 diacid])QILLEQERQE[Aib]EREQAEKNEQILEQV-NH2
# SMILES: CC[C@H](C)[C@H](NC(C)=O)C(=O)N[C@H](C(=O)N[C@@H](CC(C)C)C(=O)N[C@@H](CO)C(=O)N[C@@H](CC(C)C)C(=O)N[C@@H](CC(=O)O)C(=O)N[C@@H](C(=O)N1CCC[C@H]1C(=O)N[C@H](C(=O)N[C@@H](CCCCN)C(=O)N[C@@H](CC(C)C)C(=O)N[C@@H](CCCCNC(=O)COCCOCCNC(=O)COCCOCCNC(=O)CC[C@H](NC(=O)CCCCCCCCCCCCCCCCC(=O)O)C(=O)O)C(=O)N[C@@H](CCC(N)=O)C(=O)N[C@H](C(=O)N[C@@H](CC(C)C)C(=O)N[C@@H](CC(C)C)C(=O)N[C@@H](CCC(=O)O)C(=O)N[C@@H](CCC(N)=O)C(=O)N[C@@H](CCC(=O)O)C(=O)N[C@@H](CCCNC(=N)N)C(=O)N[C@@H](CCC(N)=O)C(=O)N[C@@H](CCC(=O)O)C(=O)NC(C)(C)C(=O)N[C@@H](CCC(=O)O)C(=O)N[C@@H](CCCNC(=N)N)C(=O)N[C@@H](CCC(=O)O)C(=O)N[C@@H](CCC(N)=O)C(=O)N[C@@H](C)C(=O)N[C@@H](CCC(=O)O)C(=O)N[C@@H](CCCCN)C(=O)N[C@@H](CC(N)=O)C(=O)N[C@@H](CCC(=O)O)C(=O)N[C@@H](CCC(N)=O)C(=O)N[C@H](C(=O)N[C@@H](CC(C)C)C(=O)N[C@@H](CCC(=O)O)C(=O)N[C@@H](CCC(N)=O)C(=O)N[C@H](C(N)=O)C(C)C)[C@@H](C)CC)[C@@H](C)CC)[C@@H](C)CC)C(C)C)C(C)C
# B2: SEQ ID NO: 160 (peptide)
# peptide: Ac-IVLSLD[dV]PIKLK([AEEA-AEEA-γGlu-C18 diacid])QILLEQERQE[Aib]EREQAETNKQILEQV-NH2
# SMILES: CC[C@H](C)[C@H](NC(C)=O)C(=O)N[C@H](C(=O)N[C@@H](CC(C)C)C(=O)N[C@@H](CO)C(=O)N[C@@H](CC(C)C)C(=O)N[C@@H](CC(=O)O)C(=O)N[C@@H](C(=O)N1CCC[C@H]1C(=O)N[C@H](C(=O)N[C@@H](CCCCN)C(=O)N[C@@H](CC(C)C)C(=O)N[C@@H](CCCCNC(=O)COCCOCCNC(=O)COCCOCCNC(=O)CC[C@H](NC(=O)CCCCCCCCCCCCCCCCC(=O)O)C(=O)O)C(=O)N[C@@H](CCC(N)=O)C(=O)N[C@H](C(=O)N[C@@H](CC(C)C)C(=O)N[C@@H](CC(C)C)C(=O)N[C@@H](CCC(=O)O)C(=O)N[C@@H](CCC(N)=O)C(=O)N[C@@H](CCC(=O)O)C(=O)N[C@@H](CCCNC(=N)N)C(=O)N[C@@H](CCC(N)=O)C(=O)N[C@@H](CCC(=O)O)C(=O)NC(C)(C)C(=O)N[C@@H](CCC(=O)O)C(=O)N[C@@H](CCCNC(=N)N)C(=O)N[C@@H](CCC(=O)O)C(=O)N[C@@H](CCC(N)=O)C(=O)N[C@@H](C)C(=O)N[C@@H](CCC(=O)O)C(=O)N[C@H](C(=O)N[C@@H](CC(N)=O)C(=O)N[C@@H](CCCCN)C(=O)N[C@@H](CCC(N)=O)C(=O)N[C@H](C(=O)N[C@@H](CC(C)C)C(=O)N[C@@H](CCC(=O)O)C(=O)N[C@@H](CCC(N)=O)C(=O)N[C@H](C(N)=O)C(C)C)[C@@H](C)CC)[C@@H](C)O)[C@@H](C)CC)[C@@H](C)CC)C(C)C)C(C)C
# B3: SEQ ID NO: 159 (peptide)
# peptide: Ac-IVLSLD[dV]PIKLK([AEEA-AEEA-γGlu-C18 diacid])QILLEQERQE[Aib]QREQAEKNKQILEQV-NH2
# SMILES: CC[C@H](C)[C@H](NC(C)=O)C(=O)N[C@H](C(=O)N[C@@H](CC(C)C)C(=O)N[C@@H](CO)C(=O)N[C@@H](CC(C)C)C(=O)N[C@@H](CC(=O)O)C(=O)N[C@@H](C(=O)N1CCC[C@H]1C(=O)N[C@H](C(=O)N[C@@H](CCCCN)C(=O)N[C@@H](CC(C)C)C(=O)N[C@@H](CCCCNC(=O)COCCOCCNC(=O)COCCOCCNC(=O)CC[C@H](NC(=O)CCCCCCCCCCCCCCCCC(=O)O)C(=O)O)C(=O)N[C@@H](CCC(N)=O)C(=O)N[C@H](C(=O)N[C@@H](CC(C)C)C(=O)N[C@@H](CC(C)C)C(=O)N[C@@H](CCC(=O)O)C(=O)N[C@@H](CCC(N)=O)C(=O)N[C@@H](CCC(=O)O)C(=O)N[C@@H](CCCNC(=N)N)C(=O)N[C@@H](CCC(N)=O)C(=O)N[C@@H](CCC(=O)O)C(=O)NC(C)(C)C(=O)N[C@@H](CCC(N)=O)C(=O)N[C@@H](CCCNC(=N)N)C(=O)N[C@@H](CCC(=O)O)C(=O)N[C@@H](CCC(N)=O)C(=O)N[C@@H](C)C(=O)N[C@@H](CCC(=O)O)C(=O)N[C@@H](CCCCN)C(=O)N[C@@H](CC(N)=O)C(=O)N[C@@H](CCCCN)C(=O)N[C@@H](CCC(N)=O)C(=O)N[C@H](C(=O)N[C@@H](CC(C)C)C(=O)N[C@@H](CCC(=O)O)C(=O)N[C@@H](CCC(N)=O)C(=O)N[C@H](C(N)=O)C(C)C)[C@@H](C)CC)[C@@H](C)CC)[C@@H](C)CC)C(C)C)C(C)C
# B4: SEQ ID NO: 18 (peptide)
# peptide: IVLSLD[dV]PTKLK([γGlu-Palmitoyl])QKLLKQERQRKEREQAEKNKRILERV-NH2
# modifications: N-terminus assumed
# SMILES: CCCCCCCCCCCCCCCC(=O)N[C@@H](CCC(=O)NCCCC[C@H](NC(=O)[C@H](CC(C)C)NC(=O)[C@H](CCCCN)NC(=O)[C@@H](NC(=O)[C@@H]1CCCN1C(=O)[C@H](NC(=O)[C@H](CC(=O)O)NC(=O)[C@H](CC(C)C)NC(=O)[C@H](CO)NC(=O)[C@H](CC(C)C)NC(=O)[C@@H](NC(=O)[C@@H](N)[C@@H](C)CC)C(C)C)C(C)C)[C@@H](C)O)C(=O)N[C@@H](CCC(N)=O)C(=O)N[C@@H](CCCCN)C(=O)N[C@@H](CC(C)C)C(=O)N[C@@H](CC(C)C)C(=O)N[C@@H](CCCCN)C(=O)N[C@@H](CCC(N)=O)C(=O)N[C@@H](CCC(=O)O)C(=O)N[C@@H](CCCNC(=N)N)C(=O)N[C@@H](CCC(N)=O)C(=O)N[C@@H](CCCNC(=N)N)C(=O)N[C@@H](CCCCN)C(=O)N[C@@H](CCC(=O)O)C(=O)N[C@@H](CCCNC(=N)N)C(=O)N[C@@H](CCC(=O)O)C(=O)N[C@@H](CCC(N)=O)C(=O)N[C@@H](C)C(=O)N[C@@H](CCC(=O)O)C(=O)N[C@@H](CCCCN)C(=O)N[C@@H](CC(N)=O)C(=O)N[C@@H](CCCCN)C(=O)N[C@@H](CCCNC(=N)N)C(=O)N[C@H](C(=O)N[C@@H](CC(C)C)C(=O)N[C@@H](CCC(=O)O)C(=O)N[C@@H](CCCNC(=N)N)C(=O)N[C@H](C(N)=O)C(C)C)[C@@H](C)CC)C(=O)O
# Target: human corticotropin-releasing factor 2α (CRF2 α receptor) (human), Q13324
# Sequence (Q13324 20-411): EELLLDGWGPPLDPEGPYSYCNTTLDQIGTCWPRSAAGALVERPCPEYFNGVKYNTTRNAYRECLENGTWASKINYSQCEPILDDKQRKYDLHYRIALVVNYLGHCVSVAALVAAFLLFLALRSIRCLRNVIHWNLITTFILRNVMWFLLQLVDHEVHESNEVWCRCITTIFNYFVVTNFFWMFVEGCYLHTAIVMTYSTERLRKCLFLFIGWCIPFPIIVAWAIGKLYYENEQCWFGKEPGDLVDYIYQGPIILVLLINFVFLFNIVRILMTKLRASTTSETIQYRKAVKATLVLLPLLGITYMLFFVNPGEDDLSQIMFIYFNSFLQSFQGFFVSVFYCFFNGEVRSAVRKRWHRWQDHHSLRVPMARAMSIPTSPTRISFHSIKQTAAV
# Experiment: cell-based or functional assay
"EC50 [nM], 0% HSA [nM]","EC50 [nM], 0.1% HSA [nM]",Binder
36,977,B1
8.56,28.9,B2
1.27,27.4,B3
0.03,,B4

# — patent US12679878B2, “CRF2 receptor agonists and their use in therapy” (SANOFI, priority 2020, dated 2026)
